Laboratory results from patent publication US20030105292A1.

Columns and labels:
G protein Gi [1] = target: G protein Gi
Gs protein [2] = target: Gs protein
G protein Gi [3] = target: G protein Gi; remark: listed apart in the source
Gs protein [4] = target: Gs protein; remark: listed apart in the source

endogenous human GPR30 (receptor)
luciferase, CRE-Luc reporter in 293 cells co-transfected with GPR6 at a 1:4 ratio (relative light units) (G protein Gi [1]): 104

endogenous, constitutively activated GPR6 (from UniProt P46095) (receptor)
luciferase, CRE-Luc reporter in 293 cells (relative light units) (Gs protein [2]): 104

non-endogenous human ETBR-LP2 (N358K) (receptor)
luciferase, AP1 reporter assay in 293T cells; Per-Cent Difference of the non-endogenous against the endogenous GPCR (G protein Gq): 61.1%
luciferase, AP1 reporter assay in 293 cells; Per-Cent Difference of the non-endogenous against the endogenous GPCR (G protein Gq): 48.4%

non-endogenous, constitutively activated GPR17 (V234K) (receptor)
luciferase, 8xCRE-Luc reporter in 293 cells co-transfected with GPR3; Per-Cent Difference of the non-endogenous against the endogenous GPCR (G protein Gi [3]): 74.5%

non-endogenous, constitutively active GPR30 (L258K) (receptor)
luciferase, CRE-Luc reporter in 293 cells co-transfected with GPR6; Per-Cent Difference of the non-endogenous against the endogenous GPCR (G protein Gi [3]): 71.6%

B1: non-endogenous human APJ (L247K) (receptor)
chain: MEEGGDFDNYYGADNQSECEYTDWKSSGALIPAIYMLVFLLGTTGNGLVLWTVFRSSREKRRSADIFIASLAVADLTFVVTLPLWATYTYRDYDWPFGTFFCKLSSYLIFVNMYASVFCLTGLSFDRYLAIVRPVANARLRLRVSGAVATAVLWVLAALLAMPVMVLRTTGDLENTTKVQCYMDYSMVATVSSEWAWEVGLGVSSTTVGFVVPFTIMLTCYFFIAQTIAGHFRKERIEGLRKRRRLKSIIVVLVVTFALCWMPYHLVKTLYMLGSLLHWPCDFDLFLMNIFPYCTCISYVNSCLNPFLYAFFDPRFRQACTSMLCCGQSRCAGTSHSSSGEKSASYSSGHSQGPGPNMGKGGEQMHEKSIPYSQETLVVD
[35S]GTPgammaS binding to membranes expressing the receptor; Per-Cent Difference of the non-endogenous against the endogenous GPCR (G protein): 49%

B2: non-endogenous human GHSR (V262K) (receptor)
chain: MWNATPSEEPGFNLTLADLDWDASPGNDSLGDELLQLFPAPLLAGVTATCVALFVVGIAGNLLTMLVVSRFRELRTTTNLYLSSMAFSDLLIFLCMPLDLVRLWQYRPWNFGDLLCKLFQFVSESCTYATVLTITALSVERYFAICFPLRAKVVVTKGRVKLVIFVIWAVAFCSAGPIFVLVGVEHENGTDPWDTNECRPTEFAVRSGLLTVMVWVSSIFFFLPVFCLTVLYSLIGRKLWRRRRGDAVVGASLRDQNHKQTKKMLAVVVFAFILCWLPFHVGRYLFSKSFEPGSLEIAQISQYCNLVSFVLFYLSAAINPILYNIMSKKYRVAVFRLLGFEPFSQRKLSTLKDESSRAWTESSINT
luciferase, CREB reporter assay in 293T cells; Per-Cent Difference of the non-endogenous against the endogenous GPCR (Gs protein [4]): 35.6%
luciferase, CREB reporter assay in 293 cells; Per-Cent Difference of the non-endogenous against the endogenous GPCR (Gs protein [4]): 58.9%
